Laboratory results published in patent publication US20020086018A1.

Key:
[1] = biological target: huBCMA-Fc (soluble human BCMA-Fc receptor fusion protein) (human); assay: BIAcore 2000; BCMA-Fc immobilised on CM5, Flag-APRIL as analyte, 1:1 Langmuir model
[2] = biological target: mBCMA-Fc (soluble murine BCMA-Fc) (mouse); assay: as above

Soluble murine APRIL-Flag protein (FLAG-tagged soluble mouse G70) (ligand)
Kd [1]: 0.29 nM | Kd [2]: 0.25 nM
